Where no end group is shown, it is not given here. [ ]: non-standard residue; d: D form. pS = N[C@@H](COP(=O)(O)O)C(=O)O
B1: 14-3-3ζ dimer (natural protein)
chain: MDKNELVQKAKLAEQAERYDDMAACMKSVTEQGAELSNEERNLLSVAYKNVVGARRSSWRVVSSIEQKTEGAEKKQQMAREYREKIETELRDICNDVLSLLEKFLIPNASQAESKVFYLKMKGDYYRYLAEVAAGDDKKGIVDQSQQAYQEAFEISKKEMQPTHPIRLGLALNFSVFYYEILNSPEKACSLAKTAFDEAIAELDTLSEESYKDSTLIMQLLRDNLTLWTSDTQGDEAEAGEGGEN

Experiments:
Experiment in all cases: FP
14-3-3ζ dimer = target: B1
[1] = target: FAM-tagged PKCε pSer346/pSer350 phosphopeptide (UniProt P16054, phosphoserine at 346; phosphoserine at 350; FAM label (end not stated))
[2] = target: FAM-tagged PKCε pSer346 phosphopeptide (UniProt P16054, phosphoserine at 346; FAM label (end not stated))

| Kd (14-3-3ζ dimer) [µM] | Kd [1] [µM] | Kd [2] [µM] | Binder |
| --- | --- | --- | --- |
| 0.03 | – | – | DRSK[pS]APTSPCDQEIKELENNIRKAL[pS]FDNR (also: FAM label (end not given here)) [FAM-tagged PKCε pSer346/pSer368 phosphopeptide] |
| – | 335 | 31.5 | B1 |
| 0.147 | – | – | DRSK[pS]APT[pS]PCDQEIKELENNIRKAL[pS]FDNR (also: FAM label (end not given here)) [FAM-tagged PKCε pSer346/pSer350/pSer368 phosphopeptide] |

From publication PMC8238520 (2021)
